The numbers were not newly measured in article PMC2774623, which cites them from elsewhere.

A word on the Kd: it is the equilibrium constant for the complex coming apart.

The series deals with CK2 alpha (Homo sapiens) (UniProt P68400). Briefly: SPR.
Chain of CK2 alpha (Homo sapiens) (P68400 whole entry): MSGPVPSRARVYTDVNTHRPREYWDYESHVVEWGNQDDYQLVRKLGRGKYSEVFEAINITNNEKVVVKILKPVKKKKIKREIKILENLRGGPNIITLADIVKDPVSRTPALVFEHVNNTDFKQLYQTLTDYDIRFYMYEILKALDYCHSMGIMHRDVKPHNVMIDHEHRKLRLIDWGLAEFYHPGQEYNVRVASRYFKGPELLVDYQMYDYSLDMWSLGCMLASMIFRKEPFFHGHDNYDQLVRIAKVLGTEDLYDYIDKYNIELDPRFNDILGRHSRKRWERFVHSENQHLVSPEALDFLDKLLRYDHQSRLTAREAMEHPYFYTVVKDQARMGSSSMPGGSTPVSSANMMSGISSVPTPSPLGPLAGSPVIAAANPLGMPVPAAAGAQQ

Chain of CK2 beta (P67870 2-215): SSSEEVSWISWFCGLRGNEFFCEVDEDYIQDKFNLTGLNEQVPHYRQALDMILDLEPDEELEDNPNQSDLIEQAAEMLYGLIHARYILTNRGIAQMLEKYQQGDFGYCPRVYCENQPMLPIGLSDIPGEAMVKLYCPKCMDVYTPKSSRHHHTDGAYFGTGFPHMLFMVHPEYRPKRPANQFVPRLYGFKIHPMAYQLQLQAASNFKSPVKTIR

For the substance CK2 beta (from UniProt P67870), the Kd was 40.8 nM.
